# Test results reported in patent US20170023576A1 (ONCOMED PHARMACEUTICALS, published 2017).
# Target: T1, human NOTCH3 extracellular domain (human, UniProt Q9UM47 40-1643)
# T1 construct: In the tissue IHC the target is endogenous NOTCH3 in tumor sections; also called NOTCH3 ECD
# Test: screening by FACS, Western blot and IHC on FFPE pellets of HEK-293 cells transiently transfected with NOTCH ECD constructs
# Excerpt: Screening was first done by FACS, followed by Western blot analyses and then in IHC assays using HEK-293 cells transiently transfected with NOTCH1, NOTCH2, NOTCH3, or NOTCH4 ECD constructs. Starting with 68 supernatants from hybridoma cells, seven candidate antibodies were selected for further testing and optimization in IHC assays, 122M23, 122M25, 122M26, 122M27, 122M35, 122M36, and 122M40. […] The desired antibody needed to be specific for NOTCH3 ECD, so the staining had to be predominantly membrane localized, with minimal or no detectable background non-specific staining in transiently transfected cell pellets in FFPE format. In addition, the antibody had to give appropriate results on positive and negative control tissues.
# T1 sequence (Q9UM47 40-1643 limits assumed): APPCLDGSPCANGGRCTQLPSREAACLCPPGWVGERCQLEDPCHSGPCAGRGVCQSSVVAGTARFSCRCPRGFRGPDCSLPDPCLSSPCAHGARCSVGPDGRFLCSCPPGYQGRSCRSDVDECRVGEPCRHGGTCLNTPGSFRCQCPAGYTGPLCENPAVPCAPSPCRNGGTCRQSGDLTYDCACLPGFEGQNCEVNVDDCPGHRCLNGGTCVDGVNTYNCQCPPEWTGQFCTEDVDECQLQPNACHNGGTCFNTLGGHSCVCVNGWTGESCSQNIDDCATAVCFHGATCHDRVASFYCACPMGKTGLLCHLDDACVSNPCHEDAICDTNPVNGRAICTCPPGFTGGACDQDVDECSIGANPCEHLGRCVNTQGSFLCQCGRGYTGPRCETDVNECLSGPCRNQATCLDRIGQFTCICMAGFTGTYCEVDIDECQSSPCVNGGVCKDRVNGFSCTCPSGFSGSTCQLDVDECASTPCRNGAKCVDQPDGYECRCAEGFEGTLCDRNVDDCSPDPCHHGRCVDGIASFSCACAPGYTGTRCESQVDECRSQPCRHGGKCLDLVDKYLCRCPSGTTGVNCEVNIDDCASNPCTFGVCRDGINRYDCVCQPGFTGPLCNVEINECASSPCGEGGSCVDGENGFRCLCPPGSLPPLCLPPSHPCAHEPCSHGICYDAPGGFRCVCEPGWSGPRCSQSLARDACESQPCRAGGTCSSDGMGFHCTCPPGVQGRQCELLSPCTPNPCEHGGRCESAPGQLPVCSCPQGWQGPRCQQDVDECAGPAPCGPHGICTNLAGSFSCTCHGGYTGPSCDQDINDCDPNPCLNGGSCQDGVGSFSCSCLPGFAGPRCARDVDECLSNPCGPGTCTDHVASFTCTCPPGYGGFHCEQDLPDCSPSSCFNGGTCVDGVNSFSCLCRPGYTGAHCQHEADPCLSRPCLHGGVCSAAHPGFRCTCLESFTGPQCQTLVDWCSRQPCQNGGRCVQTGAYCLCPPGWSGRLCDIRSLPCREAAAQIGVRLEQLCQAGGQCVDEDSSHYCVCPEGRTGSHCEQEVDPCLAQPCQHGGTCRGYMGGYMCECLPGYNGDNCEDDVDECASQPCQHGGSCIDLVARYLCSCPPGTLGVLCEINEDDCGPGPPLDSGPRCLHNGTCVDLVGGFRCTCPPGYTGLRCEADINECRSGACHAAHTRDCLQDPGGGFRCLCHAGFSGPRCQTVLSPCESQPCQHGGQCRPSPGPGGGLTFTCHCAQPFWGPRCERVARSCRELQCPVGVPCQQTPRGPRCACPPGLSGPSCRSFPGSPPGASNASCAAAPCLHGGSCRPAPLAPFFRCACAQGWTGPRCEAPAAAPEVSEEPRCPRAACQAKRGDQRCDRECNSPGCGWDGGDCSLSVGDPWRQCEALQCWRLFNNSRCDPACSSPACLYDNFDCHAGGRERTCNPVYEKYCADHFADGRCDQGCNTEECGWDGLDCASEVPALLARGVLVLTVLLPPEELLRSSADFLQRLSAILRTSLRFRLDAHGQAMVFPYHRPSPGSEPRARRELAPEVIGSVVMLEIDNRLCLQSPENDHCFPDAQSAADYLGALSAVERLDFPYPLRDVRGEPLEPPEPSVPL
binder,measurement,value
"anti-NOTCH3 antibody 122M23 (antibody, V domains shown, Murine monoclonal antibody from a hybridoma (ATCC PTA-121154); also called murine monoclonal antibody 122M23) VH: QVQLQQSGAELARPGASVKMSCKASGYTFTKYTIHWVAQKPGQGLEWIGYINPSNDYTNYNQTFKDKATLTADKSSTTAYMQLISLTSADSTVFYCARGTTPYSLDYWGQGTSVTVSS VL: not shown",binding result,binds
